From a protein production outcome set (Wang et al. 2014) come the findings set out here.

The series in a line: label from the status in PepcDB records.
Regarding “MERELGPWRLTFRVRGWLSDEVFGEISRYARYLGRDRGYGLFRIDPERLRGNGLTLWDAIASLEDLGVAVEEDLEALKRAAEEALRVVLELRGGWVYISSRVMLKPILEEEGLSLPYDREARAYRAPPIMYPRLREAFERRGLKVEDRVFPPSSRSLPRPVRFTGELRDYQEEALEAWRKAGGRGVIVLPTGAGKTVVAIAAVAWAGVWSLIVVYTRDHVRQWIDAFRRFTDAHSLVGAYYGEEKRLAPITVTTYQTAYRHIDRLAPLFPFLVFDEAHHIPADKFKRIASASPAPYRMGLSATIEREDGRHEEVYSLVGGVVYSSSPGELTRKGYLAPFVIRRVKVELEEEEKRLYEDLKRKYRILARGRSFEKILEDARRGDPTAIEAIRVNTRMKEIVQLSESKIRAVEKLVREELSRGSKVIVFTQYRRQAEEIARRTGALLLHGGLERRVREATLAKFRALKAGALVVTTVGDEGLDIPDANVGILVSGTGSRRQFIQRLGRLLRPGEGKRAVLYEVIARGTGEELQSRRRRGRG”, the protein production entry is given as “failed”.

For “MTLVSVVLPVYQGAPWIRGALDCLAAQTHRPLEILVVDDASSDGTPAVVEDWRARHPDLSVRLIVRPENGGPGVARNDALALARGAYVAFLDADDRCVPWRLARQLARLEAEPGLGSVGAWYDMVDADGTPVAARRLSVTAGEMAWAALIHPPFLLSTLMTRRALCRPGIFAPRHQGEDAPAQRRLLWQAPAAMIEEVLVTYRTDPHRPQDPRMGVAMAEDLAPLTGPLSAAEAWALHDALLAFPNRVTPAAIAAVSGLFTLLGVFRGLRPAWMTRPEYNRLFEGYLDLAAPFLAAHGESLLAPPSPQAPRVAPWMGPWEAEWRAGEARSDRPRPKEIFPPVGGDSPSKLSG”, the protein production result is recorded as “failed”. With “MKDKRTPMNAFRPKAQTALVVALSLFMAACSNNPLMRTSAATSSDVADEIDRTLEQAEQSQRAASNVSAVPAPSAADISSQLLPPLSSSPQQDERFDVNASEVPASSFFEALVAGTRYNVVVRPDVATTVSLRLSDVTVPEVMDIAADLYGLDITRSGRLYRVAADQVQTRLFPIDYLHFKRRGGSETRVSSGQVSSSRSNREGAGSNDNNEDNETRNLVGTTISTQTESDFWRDIRDALNMIVGGDNGQVVVNPGAGLVMVRAGADDLRLVENYLRKTELIMQRQVVLEAKILEVGLNEGYQQGIDWNDVQSSAGRADYFTSQSLGGQQIRTPDIGGLFSATVSAGDFTGLIELLGQQGNVQILSSPRISTVNNQKAVIKVGTDEFFVTDIDFDDNNSAVTATDSTSTSVELTPFFSGISLDVTPQIAEDGAITLHVHPSVSEVADQEKVITIGERDVTLPLARSTVRETDSVIRAESGQIVVIGGLIQNSSEDNNSAVPFFSEIPLLGELFKQRNFESRKSELVILLRPVVANAGQMQADVSASRERMNVLRELLNSSESVKPQPETAPR” the entry was “failed”; with “MQFIPPILCKMNGRRQLNMHQQTKRLITISMLSAVAFILMFIKFPIPFLPPYLTLDFGDVPALLATFILGPVAGLIVEFIKNLLNFLFNIGDPVGPVANFLAASSFLLTAYFVTKYKDKIKSQIVGLSIATVVMTIVLSILNYFVLLPLYGMIMNLSDVVENVKIVIVSGVIPFNIIKGIVISIIFILLYNRLKNVLPK”, “failed”. Then “MLRVIVESASNIPKTKFGKPDPIVSVIFKDEKKKTKKVDNELNPVWNEILEFDLRGIPLDFSSSLGIIVKDFETIGQNKLIGTATVALKDLTGDQSRSLPYKLISLLNEKGQDTGATIDLVIGYDPP”, with “not failed”. With “MKDKIIDNAITLFSEKGYDGTTLDDIAKSVNIKKASLYYHFDSKKSIYEQSVKCCFDYLNNIIMMNQNKSNYSIDALYQFLFEFIFDIEERYIRMYVQLSNTPEEFSGNIYGQIQDLNQSLSKEIAKFYDESKIKMTKEDFQNLILLFLESWYLKASFSQKFGAVEESKSQFKDEVYSLLNIFLKK” the entry was “failed”. Turning to “MQILEDFDGKALPKLETDRLILRQRTVGDVPAMFDYVCLEEVAYPAGLSPIASLEDEYDYFENRYYQNLEKAKLPSGYGITVKGSDRIIGSCAFNHRHEDDVFEICYLLHPDYWGHGYMTEAVAALIEVGFTLLNLHKIEIRCYDYNKQSRRVAEKLGFTLEATIRDRKDNQDNRCVNLIYGLLRSEWE”, the protein production result is recorded as “failed”. Then “MNEKKEQALFEYDAKLSISEAIPMGLQHVVAAVVGIVTPGIMIAKVCQLSPSDTTILIQTSLIFSAVATLIQLFPIFGKVGSRLPVMMGASFAYVPILMAIGADFGIAAIFGSQLVGSILVIIVGLFIKKIRVLFPPLVTGTVILSIGLSLFPVAIKYMAGGAGSADFGSARNWLVALLTFAIVFYFNYFAKGFLKLSAILNGMVIGYLISLALGMVSFEPVQNAKIVQVITPFHFGLDFQLVPIFTLVVMFIVDAVQAIGQFTATTVGAMDRDATDEELSGGIMGSGFTNFIGSLFGSIPVATFGQNVGLVTVTKVINKYVLVFASVILLIAGFVPKVAALLTTIPYAVIGGATISVFASISMTGIRMIASQEMTPRNTGVVGTALAFGIGVTLSTGSLAGFPTWVTTIFGNSEVILTTLVAVLLNVILKPKKRVALE”, with “not failed”. For the sequence “QLQDGKGEKVMVEYSSPNTNKPLHLGHLRNNFLGYSISQILKANGFDVIKANLVNDRGIHICKSMIAYQKSGLGETPVSTGMKGDHLVGKYYVAFDKQLKKEVEALVAAGVEEDKAKKEAPILKEAQAMLLKWEQGDKEVYDLWKTMNGWVYDGFNASYKKIGVTFDHFYYESNTYLLGKDIVEEGLAKGVFNKRADGSVWIDLTAEGLDEKLVLRSDGTSVYITQDLGTAELKYKDFGCKRSVYVVGNEQDYHFIVLIHILKKLGKPYANGVYHMSYGMVDLPSGKMKSREGTVVDADDLVDEMIATAKERTLEQGKTDGFSEEQATHLYETLGLGALKYFLLKVDPKKRMMFNPEESIDFQ”, the protein production entry is recorded as “failed”. With “MPQWRVRMHSGGLELALVLMLAAIVAVPVFKRFGLGAVLAYLVAGVVLGPDGAGVVQDAERISGAAEIGVVMLLFVIGLELSPARLKVMRHSVFGAGATQVLVTAVILGGLLMAAQLGWKSALIVGVALALSSTAVGLQLLAERKALSSDYGRLAFAILLFQDLIAIPLLAAIPLLGGSKNATLQWQDVAKAVAALALVIVCGRFVLRHLFNVVARTRMPEVFTASALLVVLGTAWIMQEAGLSASLGAFIAGVLLADSEFRHELESQIEPFEGLLLGLFFISVGMGIDLHRVVAEPWLIAAGVAILLVVKFSLLVGIGSVAKLPLRSSLMLGSVLWLGGEFAFVVFNEADRVGLLEPANHDRLVAIVGVSMALTPLLLLGMQRILNGPLRARAPKTDRPFDTIDAQTPKVLVAGMGRFGQVVARLLTARHVPFVALEHNPDTVEDLRRFGSQLYYGDPTRPELLRAAGAERIKVFVIAVDDPETNIKTVRLIRRLYPQATVLARARNRQHAWKLMDLGAEPFREVFASSLELSERVLTSLGLGEALAHDHVKRFRQHDEDLLRRQHLVYDDEAKVIQTSRDARADLMNLFEADVRADVDGEPAPTLRER” the entry was “failed”. With “MFLRIDRLQIELPMPKEQDPNAAAAVQALLGGRFGEMSTLMNYMYQSFNFRGKKALKPYYDLIANIATEELGHIELVAATINSLLAKNPGKDLEEGVDPESAPLGFAKDVRNAAHFIAGGANSLVMGAMGEHWNGEYVFTSGNLILDLLHNFFLEVAARTHKLRVYEMTDNPVAREMIGYLLVRGGVHAAAYGKALESLTGVEMTKMLPIPKIDNSKIPEAKKYMDLGFHRNLYRFSPEDYRDLGLIWKGASPEDGTEVVVVDGPPTGGPVFDAGHDAAEFAPEFHPGELYEIAKKLYEKAK” the entry was “not failed”. With “GKLFEPYEHMVIDIPSEYQGNVTQLMAARKGQMLSMDNISDEWVRMEYKVPARGLISFRTMFMTETRGTGIANSYSEGLDEWAGEIKGRATGSLVADRSGQITAYALQQLADRGNFFVEPGTE” the entry was “failed”; with “MDVGMPFSGPVSFPLLVIEEELPFRIHNICSETGKFDVVLDSITNMPKYGLKIFAGVRIDMYSILGDESSGRIYTLRKGTLADFNARILAYYDKAQVINADGDTCIKMANEGYSALVGNEISIGKSFRNRMKELGLDLPSCAMASTRRIDEVIEAYEQGIDFIKNNHERAAEIISKKSGYYSEEVMKKIIGIYGHEVTKKRAELVGSRELYSRVVPELNDIEIIG”, “not failed”.

In the case of “MKMRKLVKDFGDDYTLIQDSQEVKAILEYIGSEEEPHALFVKVGDGDYEEVWGIDSFVPYNFLEAYRLK”, the protein production result is on record as “not failed”. Then “PGMLYEFCLKPDGTMTFPYVSSGCLELIECSPQELQDDASLTFASTYPEDIIGLQEAIANSAKTLQNFEHEWRIITSSGQLKWVKGASRPERKPGGEITWYGYLLDVSEQQAALRERKQADQQLQQQAQLLQSIWEGVD”, with “failed”; and “TDRARRVIVLAQEEARGLNHNYIGTEHILLGLIHEGEGVAAKALESMGISLEAVRQEVEEIIGHGSEPPAGHIPFTPRAKKVLELSLREGLQMGHKYIGTEFLLLGLIREGDGVAAQVLVKLGADLPRVRQQVIQLLSGYEGGESPENNNEGEAVGAG”, with “failed”; and “LTRWGAFRNITLPLALPGLAAAAMFTFVMSWNEVFVASILTLKNRTLPAQILSIVAGAAGGAAPAYYKFAAAFIMTLPAMLFIFFARRYLVTMWGITL”, with “failed”.

Take “TSLEEITKAIMADSQNKVFTEKNIEPLFAAPKTARINIVGQAPGIKAQESRLYWNDKSGDRLREWMGVDYDTFYHSGYFAVIPMDFYYPGKGKSGDLPPRKGFAQKWHQPILDLLPDIQLTILIGNYAQKYYLHQKSSVKLTDTVAHYKKYLPDYFPLVHPSPRNQIWMSRHPWFEAQVVPDLKKIIQQIIQSS”: the protein production entry is reported as “not failed”. With “MQNIRVVLARPNHPGNIGSAARAMKTMGLSRLYLVEPKVFPSEEANALASGAVDLLENATVVGSLREALSDVTVACALTSRRRELTTPLSTPRQTTPELIARARDGEQVALVFGNETFGLSIEEVEQCNRLVTIPGNPDYFSLNLAMAVQVMTYELFSHTGVDVEYLRAEGEAATQSEVDGMCGHLEQAMDEIGYFQRRNSERLMRRMRTMFHRAGMLREEIDILRGFYKQVQRTASGRSGDAD” the entry was “failed”; with “MLKRIFTVGGFTLLSRLTGFARDIMLAAILGAGPVADAFFVALRLPNHFRAIFAEGAFNAAFVPAYAHVHGEKGEASAKLFADRIFTLLFLSQLVLLAVALAFMPQMMSILAPGFTDDPEQRALAIELTRITFPYLLLITLVTLYGGILNVMQRFASAAAASIFLNISMMATLALAAFFPSAGHAAAWGVLISGVLQYFLLAGDLSLHGGLPRFARPKLDEDVRAFFRALGPATLGSMGTQLALFADTIIATFLPAGALSALYYADRLNQLPIGVIGIAIGTVLLPEMSRQLTAGDDAGAKASQRRAFEFTLLFSVPFVAAFLTVPDEIMRAMFARGAFTRADAISAGTTLAAYAIALIPFVLIRSAVAPFYARKDTATPVKAALTGVATNVVLKFALMGSLAQVGLALATAAGAWINLLLVIFFSVRAGYLEFDRELVRAILKFGIIGVLLGAALWLTAWLAPPYLALLPALRSEAALALLILVGAVIYGAAILILFGPRWIKRLLRG”, “failed”; with “MVFGPGLCIAHRGTIVVNKGARVGENCRIHACTNIGSGRDNIFLAPKIGNGVYIGPGAKIFGSVEIADNIAIGANSVVNRSFYERGISIAGVPAKKISNKGSDGMVIAATKTVSVPVSQETILEHHHHHH”, “failed”.
